According to a protein production outcome set (Wang et al. 2014):

Experiment: label from the status in PepcDB records

In the case of “MEFDKSVQNYLIGANFSSGLVLDISKKENYILDRISILEQLSKDKKIIHLGCCDHIPLIQNKIENNTWLHSRLCSNSKRCIGVDINKDGIKYLKNNLGYEDVLCGDIIEEELNAIKEEHWDYMILGEILEHIDNPCLFLSDVQKKYHGIVDRLVITVPNALSYQNMKYTFLNKEYINTDHRYWFTPYTLGKIVTLAGMEVEKFFFCVPFPRDNGVFYALNPKSILFDFICKRYPPTRETLLMVAVV”, the protein production is reported as “failed”.

With “MTIVLIAFALYLLATALLTWAVLRDGNQSPARWLAPALAAVALHAGYHVLVAVRTAGGPDMHFFAALSLCGLGMAALTAVFGGRGRMAAVGVVVFPLSAILLASYHAYGHEPSSDLGWRLELHAWLALLAYATLGIAALLAIMLWLQERALRRRDFHSWLRALPPLTELETLLFRTITVGFVLLSLTLLTGLLFVQDFLAQRLLQKTVLSILSWIVFGALLIGRWRNGWRGTKAVHWTLTAMALLVLSFFGSKFVIELVLGPR” the protein production was “failed”.

With “MKCKRLNEVIELLQPAWQKEPDLNLLQFLQKLAKESGFDGELADLTDDILIYHLKMRDSAKDAVIPGLQKDYEEDFKTALLRARGVIKE” the protein production was “failed”.

For “MLGSTDLVLLGKVVATHGIRGQLSVVPFSGEFSTILSMQTVYLSGPDNRKESFEVDRAAVHRNRVLLTLKGFANINEVLHLVGRELFARRDQFPPLDEGEFYWCDLIGLSVTTSEGLSLGRIEEIIATGSNDVYVVRDGEREYLIPALEDIVVGVDLDKGIMTVSPTEGLLDLLEHHHHHH”, the protein production was “not failed”.

In the case of “MDFRRAPELIGRLQEQAVVPREQGVQRLMRLALEYWLLPVLLLAAAVRFYDLTAAAIWGDEGSSLVLSQYSLSEIWFHAARDVHPPLYFMLLRGWIELFGDGIFSIRTFSALPGIVTVGLGMWLVALLATRRAAILAGVLLALLPTAVRYSQEVRMYALLGLLLLGATLALVYWLRQPSRPGYLVSYALLMTLAFYTHYFTAFCVLAHWLYLAVSGVRAEGGGRLVTRPAWWLANAAIVLLFLPWVPELLDLLRHMDELKANGDVGWEPVVTWSSLPAMVWQLLIQDEGDNLPGALFVGMPLLLLAVCSVLAWRDGAPARFGGLLASFTLLPLLLVFAVSFASPVFIERYLTAYALGLPMIMAVLIDRWLKTARLVALALLLGFVGLEAVGLKNNIDVDANDQISVMVDYVNRHYVAGDRIVISDMLWYLSYVYYNRTDAQPMLYTPPLPGGTSSRPNAYGFGTLIDHPDQVYLDQLSALSVGSGRYWLVGSDDQSEEFAPLPQGWHKVGQFAAGGTRARLFVLCGSAAGASCAGQ”, the protein production is reported as “failed”.

With “MEEGKKMKRIIGMIVSLALLAGLLAGCSTSATGSNINTPAAQAEKTPGAGGSGAEEAAWPRTIVDATGKEITLTEQPQRIAILHSLYLEYFLALGTPPIASAGASTGDAMKALGEWETLKPYAGTAKIIDLGSARDLNLEAILGANPDVIVTFKGQGNLDKIYEQLEQIAPVILVDFSAPWQEQILACAEIVNKEADAQKLIKEIEDSVQSAKEKLSRHQDKTIAIFRTDGGKAFVTRGNKDYYDTFGIAKPEGYPDDYETLSLEAVAEMNPDYIIFQDFITTSQAFVKTQEASSVWQAMEAVKKGQVVYFDDSLNTFGPLATKLTAEKLIQIISD” the protein production was “failed”.

With “MSDGIPFAGEPADSHEAIMRATFRALREYGYAGLSIQRIADEADLSKSTFYHHFDGKEDLLLSFQEFILTEFNRIFQIESTGDPEQDIKTFVSLILDDFPDCVETPTKNAVLGSYVEMRAQAVQNPDFREKFTETDELFARQLVQIIEDGIEQGVFADVDPDTVSRFMITILDGVILQSATRNDNPVAEVRDTIDEYIEETLILNT” the protein production was “failed”.

For “MKNNKKGLWGIIVAVGLFLLSKLKWVFAIFKLAKFSTVFSMFLSLGAYAVLYGWKFGVALIYLLFVHEMGHLWAAKRKGIPTSPAIFIPFMGALIGMKEMPKNAKDEAYIAYMGPLFGLLSFLPAIPLYIMTKEPFWALVILLGSMINFFNLIPVSPLDGGRIISVVSTKIWGAGLILLLGYSIYFKSILGGFIVIIGCMELYRVIKRDEPIKELGHKIYGMKEYVTRLEEELKETGAVHRTIYVMHHEMNALRQREREKELQIGELKKMEVLEYLLPKFEPLDYVPYEDEKDEYTIHIREAFEASERKLNEWKTEKEQQENYYKVDAKTKWTVFACYIGLMVILGYTAYEGYIVLQEHLPTRNV”, the protein production was “failed”.
